Data published in a protein production outcome set (Wang et al. 2014).

Assay: label from the status in PepcDB records

Sequence: MAKNYDQLAKTIIKDVGGKDNVNSVVHCATRLRFKLKDEKKADDDALKNTDGVVTVVKAGGQYQVVIGNEVADVYDAVLKEGGFSGGGEVPDDYSEDDNSSFVDKAVALISGIFTDILAPLSAGGIIKGLVVLAAAMGWLSTSSGAYQILYAIGDSIFYFLPIFLGVTAARRFHMNQFIGLAIGATLTYPTMVQLAASKTVLGTLFAGTPFASQIHTTFFGIPVITMNYTSTVLPVLFAVWFASIIEHWSKKWIPSVVQMFLVPVVTMIITLPIAFIVIGPVMTWVGNAIGAVMSGIYHFSPIIAGLLLGGLWQVLVIFGVHWGIVAVTTADLAALGYDPILGMTCMVCYAQIGVVLAIIKQTKDKKLKENATGAFFSGLFGVTEPAIYGITLPRKRPFVLSCIAGAVSGAIIGAFHSVLYILPSMGFFAIPAYINPKGGSMTQIIGVIIAGVVAFIVGFALQMLFGKKSVDAKYDKKQTEKVEVNETLQTTPDVATATLASPENGQIMPLSEVKDDVFSSGAMGKGIAIEPSDGVLHAPADGKIIMTFKTGHAIGMKTKNGAEILMHIGMDTANLQGKGFDTLVEKDQKVKAGDPLIKFDIDLIKKAGYPVTTPMVVTNSQDFDDIKQIVKGEVKVGQAVLELEAPEAKDVTTSVNGQVQLN
- protein production: failed

Sequence: MAKPGFRLALFATLLALIVVLLGAYTRLTHAGLGCPDWPGCYGFISVPKGEAQLAHAELHFPDTPVEAHKGWNEMIHRYFAGTLGLLIVLLAARAWTHRRHPGQPLKLPLFLLAVVFAQAAFGMWTVTLKLWPQVVTAHLLGGFATLSLLFLLTLRLSGVLPALIVPRRLQYWATAGLVLVIGQIALGGWVSSNYAAVACIDLPTCHGQWWPNMDFANGFHLTQHIGPNYLGGQLDSDARTAIHMTHRVGAVLVTLVLLGLAWQLRQTGMTRLAGLVLVALGAQVSLGLSNVFFHLPLPVAVAHNAGGAALLLTLVLVNYHARTSLVRARDRLPLGWRLSPRKQMAGPITIKGEMPWRL
- protein production: failed

Sequence: MAKRGREAKSAERTRQLAESEARLRLMADAAPFPLAMNRLAGGELIYANARAEELFGARLRPDRPLRVQDFYAEPAEREKVARALLEGRAVRDREVRLRDAGGRPFWALVSCELVQSGETWYVINGVNDISERKRLEQSLQDANAALRSHLREIELLQQGLREQALRDPLTGLFNRRHLDDILPRVLAHMLALHREVAVLMVDADHFKRINDTYGHRCGDAVLTALGACLSDHFRSGDIVCRYGGEEFFVLLPGATLEAAYAKAEGLRRAVGERPMEALGHSLAVTLSIGLALCPLHGSDAESVVRAADEALYQAKRQGRDRVCVAARLQSLLS
- protein production: failed

Sequence: MAKSHPRWRLAKKVLTWLFFIAVVVLLVVYAKKVDWGDVWTVIRDYNRTALLSAVGLVIVSYLLYGCYDLLGRLYCGHKLAKRQVMLVSFVCYAFNLTLSTWVGGIGMRYRLYSRLGLPGSTITRIFSLSITTNWLGYILLGGIIFTFGIVQLPDHWYIDAGTLRILGIVLLLIIAVYLWFCAFAKRRHMTIKGQKLVLPSWKFALAQMAISSANWMAMGAIIWLLMGQDVNYFFVLGVLLVSSIAGVIVHIPAGIGVLEAVFLALLAGEHTSQGTIIAALLAYRVLYYFIPLLLALVCYLILESRAKKLRAKNERAMAK
- protein production: failed

Sequence: MAKSPKFMVFHLRELIYTLVFILLGIILIISLVIMFYNRGNKQEKEENTGVYEPGVYTSCVTLNGNPMDVKVTLDDNHINSITVDNVSNTITTMYPLVEPAFNDIANQIVTNQSLENIKFDDNSKYTYTILYNAILDTIEKGKVGE
- protein production: failed

Sequence: MAKSSVANIFTFSNLSCGLLSLIMTLAASSTNNEYYKLACLFILIAGIIDRYDGRVARALNVSSELGKELDSLADLVSFGVAPSILAYHLCNFSSNFNFLGYIFVLIFPIAGAYRLARYNLSTFDGVFRGIPITLAGMFMALYSLIYLLLNTQPNAVLTIVIMLILSYLMVSNLKLKKL
- protein production: not failed

Sequence: MAKTGDPARAVTPPAIGTLDFALDRSSPVPLYYQLARQLEAAIEHGVLAPGNLLGNEVDLSVRLGLSRPTVRQAIQSLVDKGLLVRRRGVGTQVVHSQVRRPLELSSLYDDLEAAGQDPGTRVVRNEDVPATAEVAAALGVTEGTGVTVLERLRLTHGQPVAMLCNHLPAGLLELDDARLESTGLYRMMRARGITLHSARQTVGARIASREEAERLGEREGAALLTMRRIAYDDTGRPVEYGTHVYRASRYAFDFQLLVRN
- protein production: not failed

Sequence: MAKTPAAAPTATDPVAIAGPAPETIAVHGHRIACDGVGGALGHPRVWLEMGAAGFVDCPYCDRRFVAATDAGHDEHLAPGVYVDAAGHLEHHHHHH
- protein production: failed

Sequence: MAKVTVILTSYNKPNTVGAAIESVLSQSFQDWELWIMDDASNEETQQVIDSYMLYPNVYYYNSQVKDEERHKSTRYATLINEAISRSTGDYLCYLTDDNYYLPERLQKMVQYLERYPSVDVVYSKQLVRTVDNQLITQAERIRPTKGTIRYAENIVDHCSVMHRRSLAEKVYETYGSYWNDDPICWHNGDAFFWNRLSAFALFYPINEVLDVCLKSPTSFQALNAFLPEYLPSGTLVKGLGADVYLIEDNHRRAITPTMFQQLHYREENVVHIPDPVLFKYKEGPAIDEHIWEQGKLFPNHRLIKASQEPHIYYVENHRKRHILTHKEFRLYKFRASEVVEVSRSFLDSIPTGPPISAHVNNQHPLPEGLLVRCGFKFYLSGNNRLYPIKSRVMKKLNLQMKNAVFLDSRAIGRYEQGETIEWKTNKCQPRFNTSSLEHHHHHH
- protein production: failed

Sequence: MAKWRVAAILSGALLAADARAEALRMLLTQIPGIIEQAPDGASMRGVGIDLMKEVGRRAGVELRFEAYPQARARLLVERQRDACLPVAHLPEQAANFKWSAPLLQMRLVLLARGDDGRQLRSLEQAGGLRVGAMRGTMAAARLKERGVAVEESADYLSGLEKLRLGRLDLWAMLDVGVASLARRLEMPPPRVAWVMDTLDVSFACNRQVDDALIARLDGAIAAMRADGSMARFDLR
- protein production: failed

Sequence: MALASSEALVNLVEYARWNQCGVSGGPGTKEFSAEGTEAAKGGRRKAAGGRAGRGGAGRERGGTRDPAMGPGARLALLALLALGGDPAAATGREDTFSALTSVARALAPERRLLGTLRRYLRGEEARLRDLTRFYDKVLSLHEDLKIPVVNPLLAFTLIKRLQSDWRNVVHSLEATENIRALKDGYEKVEQDLPAFEDLEGAARALMRLQDVYMLNVKGLARGVFQRVTGSSITDLYSPRQLFSLTADDCFQVGKVAYDTGDYYHAIPWLEEAVSLFRRAHGEWKTEDEASLEDALDYLAFACFQVGNVSCALSLSREFLVYSPDNKRMARNVLKYERLLAENGHQMAAETAIQRPNVPHLQTRDTYEGLCQTLGSQPTHYQIPSLYCSYETNSSPYLLLQPARKEVVHLRPLIALYHDFVSDEEAQKIRELAEPWLQRSVVASGEKQLQVEYRISKSAWLKDTVDPMLVTLDHRIAALTGLDIQPPYAEYLQVVNYGIGGHYEPHFDHATSPSSPLYRMKSGNRVATFMIYLSSVEAGGATAFIYGNFSVPVVKLSSVEAGGATAFIYGNFSVPVVKLHVFTVPMDGGPWCTCGHWVANKWIHEYGQEFRRPCSTNPED
- protein production: failed

Sequence: MALAVTSSSTAISGSSFSRSGASSESKALQICSIRLSDRTHLSQRRYSMKPLNAESHSRSESWVTRASTLIAPEVEEKGGEVEDFEQLAKKLEDASPLEIMDKALERFGDQIAIAFSGAEDVALIEYARLTGKPFRVFSLDTGRLNPETYRLFDAVEKQYGIRIEYMFPDAVEVQALVRNKGLFSFYEDGHQECCRVRKVRPLRRALKGLKAWITGQRKDQSPGTRSEIPIVQVDPVFEGLDGGVGSLVKWNPLANVEGADVWNFLRTMDVPVNALHAQGYVSIGCEPCTRPVLPGQHEREGRWWWEDAKAKECGLHKGNIKEEDGAADSKPAAVQEIFESNNVVALSKGGVENLLKLENRKEAWLVVLYAPWCPFCQAMEASYIELAEKLAGKGVKVAKFRADGEQKEFAKQELQLGSFPTILLFPKRAPRAIKYPSEHRDVDSLMSFVNLLR
- protein production: failed

Sequence: MALILRPPHGYSVRNRYWPGSGASNLPYLFEDFALDGDRRELRRGNSLIAVEPQVFDLLQYLIRNRERVVSKDDLVDAVWQGRIVSDATLASRVNAARSALQDNGEQQRLVRTFPRRGFRFVGTVHEEAGAEATAPVEPAKPGLGIPARPSIAVLPFVNLSGDPDQDYFADGMVEDIITGLSRIRWLFVIARNSSFTYKGRAVDMKQVGQELGVRYVLEGSVRKVGSRVRITGQLIDTEDGGHLWAERYDRELTDVFALQDEITISVVAAIEPNLRRAEIERVKRQRPDSLDAYDLFLRALPDVYTFMPQGAARGLPLLDQALAIEPSYALVHGFAAWAHQTLFIRGGMQAEHSGKASRHAHAAIEHGSGDAMALALAGFTIGLVEHDRKLADEAFSQALSLSASCAFVYAFGCVPVAYGGDATRAIDWGEQALRLNPLDAMNCVPQGMIGFGNFLAGRHEQAIAAGRRAVEMNPGFSILHGWLAAPLARLGRIEEAKAAGSRLMALDPHFTIGRWSAAVGLAPAIIDDVTEAMRLAGLPA
- protein production: failed

Sequence: MALKLGLTEAVSLGITHISIYCDHFQIFELVMWRSVPDKDSIAMIMYDVQRIRQQLTSSTPLLVTGNQTNKLAYELALETLVSEISISIEEKALTCDKN
- protein production: failed

Sequence: MALLCYNRGCGQRFDPETNSDDACTYHPGVPVFHDALKGWSCCKRRTTDFSDFLSIVGCTKGRHNSEKPPEPVKPEVKTTEKKELCELKPKFQEHIIQAPKPVEAIKRPSPDEPMTNLELKISASLKQALDKLKLSSGNEENKKEEDNDEIKIGTSCKNGGCSKTYQGLESLEEVCVYHSGVPIFHEGMKYWSCCRRKTSDFNTFLAQEGCTKGKHMWTKKDAGKKVVPCRHDLHQTGGEVTISVYAKNSLPELSRVEANSTLLNVIIVFEGEKEFDQNVKLWGVIDVKRSYVTMTATKIEITMRKAEPMQWASLELPAAKKQEKQKDDTTD
- protein production: not failed

Sequence: MALLIITTILWAFSFSLIGEYLAGSVDSYFSVLMRVGLAALVFLPFLRTRGQSPRTIVLYMLVGAMQLGIMYLLAFRAYLYLTVSEFLLFTVFTPLYITLIYDLLSGRKLRWGYLLSAALAVLGAAIIRYDKVSDHFWTGLLLVQLSNLCFAIGMVGYKRLMEVRPMPQHNAFAWFYVGAFIVAVAAWFMLGNAQKLPTTTLQWSVLVWLGVVASGLGYFMWNYGATQVDAGTLGIMNNVHVPAGLLVNLAIWQEQPHWPSFISGALVILASLWVHRRWVAPHSGQTADDRRRGSAQSE
- protein production: failed

Sequence: MALMQELYSTPASRLDSFVAQWLQPHREWKEEVLDAVRTVEEFLRQEHFQGKRGLDQDVRVLKVVKVGSFGNGTVLRSTREVELVAFLSCFHSFQEAAKHHKDVLRLIWKTMWQSQDLLDLGLEDLRMEQRVPDALVFTIQTRGTAEPITVTIVPAYRALGPSLPNSQPPPEVYVSLIKACGGPGNFCPSFSELQRNFVKHRPTKLKSLLRLVKHWYQQYVKARSPRANLPPLYALELLTIYAWEMGTEEDENFMLDEGFTTVMDLLLEYEVICIYWTKYYTLHNAIIEDCVRKQLKKERPIILDPADPTLNVAEGYRWDIVAQRASQCLKQDCCYDNRENPISSWNVKRARDIHLTVEQRGYPDFNLIVNPYEPIRKVKEKIRRTRGYSGLQRLSFQVPGSERQLLSSRCSLAKYGIFSHTHIYLLETIPSEIQVFVKNPDGGSYAYAINPNSFILGLKQQIEDQQGLPKKQQQLEFQGQVLQDWLGLGIYGIQDSDTLILSKKKGEALFPAS
- protein production: failed

Sequence: MALPIIVKWGGQEYSVTTLSEDDTVLDLKQFLKTLTGVLPERQKLLGLKVKGKPAENDVKLGALKLKPNTKIMMMGTREESLEDVLGPPPDN
- protein production: failed

Sequence: MALQLATLCFVSFSALFFVVDPFSAVPFFLALTRNDDPRRRREIALRASVTAFAVLAAFALTGEWIFRLLGIGLPAFKVAGGVVLLLLALDMVRTQPSRTRITQGEVDASADKEDVAIVPLAMPLLAGPGSIATAIVLMVRARGEDWWHPLPVLLAIALTCLASYLILAGAARTEKVLGRTGLAILERVAGLLLVAIAVQFMMDGLAEGLPRAFPLR
- protein production: failed

Sequence: MALREQWAETAMGVVVLALTAGFLTYSLTVGGVHMKRGDYEISAKFGEAGSLAPGAAVTVAGVKVGTVSQITLEPKTYLAVAKLSIDPTVKLPADSTAKITSDGLLGGAHVAIAPGASLDDLKPGGEIENTQGAVDLFGLIGSVIRPQGGAATTSTPAEANPATQPAESYLEHHHHHH
- protein production: not failed
